Reference: patent publication US6017692, “Methods of detecting a malignant cell in a biological sample comprising measuring Mxi gene expression alterations” (The General Hospital Corporation, dated 1994)

Tests used:
LexA-Hairy (Drosophila) = assay: interaction trap (yeast two-hybrid), pJK103 LexAop-lacZ reporter, galactose
LexA-Id (human) = assay: as above
[1] = target: LexA-Da (Escherichia coli (strain K12); Drosophila melanogaster (Fruit fly)) (UniProt P0A7C2); assay: as above
LexA-Max (human) = assay: interaction trap (yeast two-hybrid), pJK103 LexAop-lacZ reporter, galactose (<2 on glucose)
LexA-cMyc-Cterm (human) = assay: as above
[2] = target: LexA-n-Myc-bHLH-Zip (Escherichia coli (strain K12); Homo sapiens (Human)); assay: interaction trap (yeast two-hybrid), pJK103 LexAop-lacZ reporter, galactose (<2 on glucose); the text says that this bait does not interact
Chain of LexA-n-Myc-bHLH-Zip (Escherichia coli (strain K12); Homo sapiens (Human)) (P0A7C2 1-202, tags or fused parts left off): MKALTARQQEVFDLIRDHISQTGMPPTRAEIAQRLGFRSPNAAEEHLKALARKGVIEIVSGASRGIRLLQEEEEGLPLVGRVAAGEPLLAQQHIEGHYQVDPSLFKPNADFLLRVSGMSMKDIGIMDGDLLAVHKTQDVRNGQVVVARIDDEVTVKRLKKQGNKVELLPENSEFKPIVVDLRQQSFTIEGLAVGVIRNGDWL

LexA-Mxi1 (human) = assay: interaction trap (yeast two-hybrid), pJK103 LexAop-lacZ reporter, galactose; the same value 10 stands on glucose, where tagged Mxi1 is not induced, and the filing reads this as no self-interaction
[3] = target: c-Myc bHLH-Zip (amino acids 342-439) (human, UniProt P01106); assay: gel retardation with an oligonucleotide holding the CACGTG site
Protocol: (§1) Gel retardation DNA binding assays were performed essentially as described in Papoulas et al., (J. Biol. Chem. 267:10470–10480, 1992). Purified Max and c-Myc bHLH-Zip (which contained residues 342–439 of human c-Myc) were made from recombinant *E. coli* by standard techniques. GST-Mxi1 was made as follows: a fragment that contained the entire coding sequence of Mxi1 was amplified using polymerase chain reaction, subcloned into pGEX-2T (Pharmacia), and transformed into DH5α cells. The fusion protein was induced and isolated as described (Smith and Corcoran, *Current Protocols in Molecular Biology*, Ausubel et al., eds., Greene Publishing and Wiley-Interscience, New York, 1989). A double-stranded oligonucleotide, 5'-[…]-3' (SEQ ID NO: 9), that contained the CACGTG (SEQ ID NO: 10) consensus site was used. Approximately 0.5 μg of oligonucleotide was end labeled with [γ-^32P] ATP. Binding assays contained the indicated concentrations of purified Max, c-Myc bHLH-Zip, GST-Mxi1, and 0.5 ng of the labeled DNA probe. […]

Max (151 residue form) = Max (151 residue form) (Homo sapiens, UniProt P61244-2 P61244-2:1-151); assay: EMSA; complex b, 10 ng Max; 10 mM Tris pH 7.4, 80 mM NaCl, room temperature; details: tags: none stated; E. coli; chain copies: 2 (inferred); label: 32P 5' end
Chain of Max (151 residue form) (P61244 other isoform, or with tags, fused parts or gaps): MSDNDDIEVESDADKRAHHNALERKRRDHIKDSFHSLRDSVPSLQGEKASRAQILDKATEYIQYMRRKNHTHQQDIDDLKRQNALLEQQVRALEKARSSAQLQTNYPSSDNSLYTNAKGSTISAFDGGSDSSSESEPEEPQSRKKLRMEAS
Protocol: as §1

Chain of LexA-Hairy (Drosophila) (P0A7C2 other isoform, or with tags, fused parts or gaps): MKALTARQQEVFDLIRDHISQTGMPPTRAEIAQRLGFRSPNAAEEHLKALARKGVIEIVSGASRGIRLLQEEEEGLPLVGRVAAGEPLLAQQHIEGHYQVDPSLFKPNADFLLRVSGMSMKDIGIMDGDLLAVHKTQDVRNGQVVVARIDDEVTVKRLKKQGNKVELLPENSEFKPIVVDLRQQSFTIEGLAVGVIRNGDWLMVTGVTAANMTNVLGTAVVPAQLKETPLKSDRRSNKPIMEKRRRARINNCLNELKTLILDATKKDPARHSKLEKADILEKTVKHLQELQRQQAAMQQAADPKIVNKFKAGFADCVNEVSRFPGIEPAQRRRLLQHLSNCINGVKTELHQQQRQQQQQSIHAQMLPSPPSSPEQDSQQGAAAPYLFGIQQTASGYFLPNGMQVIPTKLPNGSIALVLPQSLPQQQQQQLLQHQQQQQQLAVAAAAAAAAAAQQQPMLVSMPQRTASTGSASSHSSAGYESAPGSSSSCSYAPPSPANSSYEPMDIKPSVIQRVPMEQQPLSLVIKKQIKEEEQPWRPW
Chain of LexA-Da (Escherichia coli (strain K12); Drosophila melanogaster (Fruit fly)) (P0A7C2 1-202, tags or fused parts left off): as the sequence (P0A7C2 1-202, tags or fused parts left off) above
Chain of LexA-Id (human) (P0A7C2 other isoform, or with tags, fused parts or gaps): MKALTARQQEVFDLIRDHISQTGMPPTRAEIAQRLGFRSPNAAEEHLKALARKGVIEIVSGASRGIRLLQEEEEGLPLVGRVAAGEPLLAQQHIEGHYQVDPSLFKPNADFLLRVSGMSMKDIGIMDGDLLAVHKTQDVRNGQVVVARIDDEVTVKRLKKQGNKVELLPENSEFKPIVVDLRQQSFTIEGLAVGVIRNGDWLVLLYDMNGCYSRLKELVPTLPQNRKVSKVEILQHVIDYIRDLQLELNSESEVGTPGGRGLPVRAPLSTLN

B1: tagged Mxi1 (the invariant activation-tagged moiety of pJG4-5 fused to Mxi1 residues 10-220) (protein)
chain: PPKKKRKVAYPYDVPDYAKPPRRLSRAQKHSSGTSNTSTANRSTHNELEKNRRAHLRLCLERLKVLIPLGPDCTRHTTLGLLNKAKAHIKKLEEAERKSQHQLENLEREQRFLKWRLEQLQGPQEMERIRMDSIGSTISSDRSDSEREEIEVDVESTEFSHGEVDNISTTSISDIDDHSSLPSIGSDEGYSSASVKLSFTSYRTQHDITVQGKIFTGPIQYKQSLKLGS
β-galactosidase (galactose) (LexA-Hairy (Drosophila)): < 2 | β-galactosidase (galactose) (LexA-Id (human)): < 2 | β-galactosidase (galactose) [1]: < 2 | β-galactosidase (galactose) (LexA-Max (human)): 120 | β-galactosidase (galactose) (LexA-cMyc-Cterm (human)): 10 | β-galactosidase (galactose) [2]: 8 | β-galactosidase (galactose) (LexA-Mxi1 (human)): 10

B2: glutathione S-transferase (GST)-Mxi1 1-220 (other)
chain: MPSPRLQHSKPPRRLSRAQKHSSGTSNTSTANRSTHNELEKNRRAHLRLCLERLKVLIPLGPDCTRHTTLGLLNKAKAHIKKLEEAERKSQHQLENLEREQRFLKWRLEQLQGPQEMERIRMDSIGSTISSDRSDSEREEIEVDVESTEFSHGEVDNISTTSISDIDDHSSLPSIGSDEGYSSASVKLSFTSYRTQHDITVQGKIFTGPIQYKQSLKLGS
binding result [3]: no binding

B3: Myc-Max consensus site oligonucleotide (dsDNA)
DNA 1: GGAAGCAGACCACGTGGTCTGCTTCC
DNA 2: GGAAGCAGACCACGTGGTCTGCTTCC
binding result (Max (151 residue form)): binds
